Molecular target: T1, hUHRF1 tandem tudor domain, 10xHIS-TEV-TTD (aa 126-285) (human, UniProt Q96T88-1 126-285)
T1 sequence (looked up): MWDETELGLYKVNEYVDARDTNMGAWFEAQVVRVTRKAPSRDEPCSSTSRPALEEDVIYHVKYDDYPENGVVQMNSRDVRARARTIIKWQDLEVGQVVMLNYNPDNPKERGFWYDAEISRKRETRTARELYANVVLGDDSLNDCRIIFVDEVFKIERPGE
Assay: MST

B1: hUHRF1 Linker 4 (aa 605-675)-6xHIS (domain or fragment, human, UniProt Q96T88-1 605-675, looked up)
chain: MQYPEGYLEALANREREKENSKREEEEQQEGGFASPRTGKGKWKRKSAGGGPSRAGSPRRTSKKTKVEPYS
Does B1 bind?
Result: binds

From publication doi:10.1101/2021.08.04.455045 (bioRxiv, 2021)
